Results published in the Immune Epitope Database (IEDB).

Assays:
HLA-B*40:02 = test: IEDB peptide-MHC binding, cellular MHC/competitive/fluorescence; ≥ and ≤ were set here for values at or beyond the usual limits of such assays; conditions: source organism: Homo sapiens
HLA-A*01:01 = test: IEDB peptide-MHC binding, purified MHC/direct/fluorescence; filed as Kd, often an IC50 or EC50 that approximates it; ≥ and ≤ were set here for values at or beyond the usual limits of such assays
HLA-A*02:01 = test: as above
HLA-A*11:01 = test: as above
HLA-A*26:01 = test: as above; conditions: source organism: Ravn virus - Ravn, Kenya, 1987
HLA-A*31:01 = test: as above
HLA-A*68:02 = test: as above; conditions: source organism: Marburg virus - Musoke, Kenya, 1980
HLA-A*69:01 = test: as above
HLA-B*07:02 = test: as above
HLA-B*08:01 = test: as above; conditions: source organism: Ravn virus - Ravn, Kenya, 1987
HLA-B*15:17 = test: as above
HLA-B*18:01 = test: as above
HLA-B*27:05 = test: as above
HLA-B*40:01 = test: as above
HLA-B*44:02 = test: as above; conditions: source organism: Marburg virus - Musoke, Kenya, 1980
HLA-B*48:01 [1] = test: as above
HLA-B*57:01 = test: as above
HLA-B*58:01 = test: as above
HLA-B*15:09 = test: IEDB peptide-MHC binding, purified MHC/competitive/fluorescence; filed as Kd, often an IC50 or EC50 that approximates it; ≥ and ≤ were set here for values at or beyond the usual limits of such assays
HLA-A*03:01 = test: IEDB peptide-MHC binding, purified MHC/direct/fluorescence; filed as Kd, often an IC50 or EC50 that approximates it; ≥ and ≤ were set here for values at or beyond the usual limits of such assays; conditions: source organism: Mycobacterium tuberculosis
HLA-B*15:01 = test: as above; conditions: source organism: Mycobacterium tuberculosis
HLA-B*38:01 = test: as above; conditions: source organism: Mycobacterium tuberculosis str. Haarlem
HLA-B*46:01 = test: as above; conditions: source organism: Mycobacterium tuberculosis
HLA-B*51:01 = test: as above; conditions: source organism: Mycobacterium tuberculosis
HLA-B*39:01 = test: IEDB peptide-MHC binding, purified MHC/competitive/fluorescence; filed as Kd, often an IC50 or EC50 that approximates it; ≥ and ≤ were set here for values at or beyond the usual limits of such assays; conditions: source organism: Mycobacterium tuberculosis variant bovis BCG str. Pasteur 1173P2
HLA-C*15:02 = test: IEDB peptide-MHC binding, purified MHC/direct/fluorescence; filed as Kd, often an IC50 or EC50 that approximates it; ≥ and ≤ were set here for values at or beyond the usual limits of such assays; conditions: source organism: Vibrio vulnificus CMCP6
HLA-B*48:01 [2] = test: IEDB peptide-MHC binding, purified MHC/competitive/fluorescence; filed as Kd, often an IC50 or EC50 that approximates it; ≥ and ≤ were set here for values at or beyond the usual limits of such assays; conditions: source organism: Vibrio vulnificus CMCP6
HLA-B*73:01 = test: IEDB peptide-MHC binding, purified MHC/direct/fluorescence; filed as Kd, often an IC50 or EC50 that approximates it; ≥ and ≤ were set here for values at or beyond the usual limits of such assays; conditions: source organism: Homo sapiens
HLA-C*07:02 = test: as above; conditions: source organism: Homo sapiens
[3] = source organism: Marburg virus - Musoke, Kenya, 1980
[4] = source organism: Mycobacterium tuberculosis

Work on SEFSDVDKL yielded an IC50 (HLA-B*40:02) of 1.4 µM.
In the case of AEILSGRVI, the Kd (HLA-A*01:01; [3]) is reported as ≥ 20 µM, the Kd (HLA-A*02:01; [3]) is reported as ≥ 20 µM and the Kd (HLA-A*11:01; [3]) is reported as ≥ 20 µM. For the same sequence, the Kd (HLA-A*26:01) was ≥ 20 µM, the Kd (HLA-A*31:01; [3]) was ≥ 20 µM and the Kd (HLA-A*68:02) was ≥ 20 µM. The Kd (HLA-A*69:01; [3]) was ≥ 20 µM, the Kd (HLA-B*07:02; [3]) was ≥ 20 µM and the Kd (HLA-B*08:01) was ≥ 20 µM. The Kd (HLA-B*15:17; [3]) was ≥ 20 µM, the Kd (HLA-B*18:01; [3]) was 16.7 µM and the Kd (HLA-B*27:05; [3]) was ≥ 20 µM. The Kd (HLA-B*40:01; [3]) was 0.0055 µM, the Kd (HLA-B*44:02) was ≥ 21 µM and the Kd (HLA-B*48:01 [1]; [3]) was ≥ 20 µM. The Kd (HLA-B*57:01; [3]) was ≥ 20 µM, the Kd (HLA-B*58:01; [3]) was ≥ 20 µM and the Kd (HLA-B*15:09; source organism: Orthomarburgvirus marburgense) was ≥ 20 µM.
For GPASLPTAL, the Kd (HLA-A*01:01; [4]) was ≥ 20 µM, the Kd (HLA-A*02:01; [4]) was ≥ 20 µM and the Kd (HLA-A*03:01) was ≥ 20 µM. The Kd (HLA-A*11:01; [4]) was ≥ 20 µM, the Kd (HLA-A*31:01; [4]) was ≥ 20 µM and the Kd (HLA-A*69:01; [4]) was 1.24 µM. The Kd (HLA-B*07:02; [4]) was 0.0413 µM, the Kd (HLA-B*15:01) was ≥ 20 µM and the Kd (HLA-B*15:17; [4]) was ≥ 20 µM. The Kd (HLA-B*18:01; [4]) was ≥ 20 µM, the Kd (HLA-B*27:05; [4]) was ≥ 20 µM and the Kd (HLA-B*38:01) was ≥ 20 µM. For the same sequence, the Kd (HLA-B*40:01; [4]) was ≥ 20 µM, the Kd (HLA-B*46:01) was ≥ 20 µM and the Kd (HLA-B*48:01 [1]; [4]) was 2.82 µM. The Kd (HLA-B*51:01) was ≥ 20 µM, the Kd (HLA-B*57:01; [4]) was ≥ 20 µM and the Kd (HLA-B*58:01; [4]) was ≥ 20 µM. The Kd (HLA-B*15:09; source organism: Mycobacterium tuberculosis variant bovis BCG str. Pasteur 1173P2) was ≥ 20 µM and the Kd (HLA-B*39:01) was 0.679 µM.
Sequence RIHDIAVQL has a Kd (HLA-C*15:02) of 0.196 µM and a Kd (HLA-B*48:01 [2]) of 0.111 µM.
In the case of FPLWWVSSI, the Kd (HLA-B*73:01) is reported as ≥ 20 µM and the Kd (HLA-C*07:02) is reported as 2.3 µM.
